In patent US20220235356:

Molecular target: KRAS G12D (GMPPNP-loaded) G12D (Homo sapiens) (UniProt P01116)
Experiment: inhibition
Details: Raf-1 binding remaining vs no aptamer, average of four aptamers at 5x KRAS; PBS, 37 C, ELISA

activity, 50%:
NNNNNNNNNNNNNNNCATANNNNNCGGTACGTCCGNNTATGNGTGGGNGGTAAGGGAGACCNCNTGACTAGTACANNNCCACNNNN [NBK2]
NNNNNNNNGATCATGNNCCGGGTTCGGNTGGGGGGNNNNNNCATGATCTACTTGACTAGTNNN [NBK1-1]
NCATANNNNNCGGTACGTCCGNNTATGNGTGGGNGGTAAGGGAGACCNCNTGACTAGTACANNNCCACN [NBK2-1]
NNNNNNNNNNNNGGNCATNNGATCATGNNCCGGGTTCGGNTGGGGGGNNNNNNCATGATCTACTTGACTAGTANATGNCCNNNNNN [NBK1]
